According to patent US5763571A, “Inhibiting protein interactions” (The General Hospital Corporation, priority 1995, dated 1998):

Experiments:
GAP = biological target: T1, GAP (Homo sapiens, UniProt P20936); conditions: Schaber et al. 1989; cited from earlier work
T1 sequence (P20936 1-1047): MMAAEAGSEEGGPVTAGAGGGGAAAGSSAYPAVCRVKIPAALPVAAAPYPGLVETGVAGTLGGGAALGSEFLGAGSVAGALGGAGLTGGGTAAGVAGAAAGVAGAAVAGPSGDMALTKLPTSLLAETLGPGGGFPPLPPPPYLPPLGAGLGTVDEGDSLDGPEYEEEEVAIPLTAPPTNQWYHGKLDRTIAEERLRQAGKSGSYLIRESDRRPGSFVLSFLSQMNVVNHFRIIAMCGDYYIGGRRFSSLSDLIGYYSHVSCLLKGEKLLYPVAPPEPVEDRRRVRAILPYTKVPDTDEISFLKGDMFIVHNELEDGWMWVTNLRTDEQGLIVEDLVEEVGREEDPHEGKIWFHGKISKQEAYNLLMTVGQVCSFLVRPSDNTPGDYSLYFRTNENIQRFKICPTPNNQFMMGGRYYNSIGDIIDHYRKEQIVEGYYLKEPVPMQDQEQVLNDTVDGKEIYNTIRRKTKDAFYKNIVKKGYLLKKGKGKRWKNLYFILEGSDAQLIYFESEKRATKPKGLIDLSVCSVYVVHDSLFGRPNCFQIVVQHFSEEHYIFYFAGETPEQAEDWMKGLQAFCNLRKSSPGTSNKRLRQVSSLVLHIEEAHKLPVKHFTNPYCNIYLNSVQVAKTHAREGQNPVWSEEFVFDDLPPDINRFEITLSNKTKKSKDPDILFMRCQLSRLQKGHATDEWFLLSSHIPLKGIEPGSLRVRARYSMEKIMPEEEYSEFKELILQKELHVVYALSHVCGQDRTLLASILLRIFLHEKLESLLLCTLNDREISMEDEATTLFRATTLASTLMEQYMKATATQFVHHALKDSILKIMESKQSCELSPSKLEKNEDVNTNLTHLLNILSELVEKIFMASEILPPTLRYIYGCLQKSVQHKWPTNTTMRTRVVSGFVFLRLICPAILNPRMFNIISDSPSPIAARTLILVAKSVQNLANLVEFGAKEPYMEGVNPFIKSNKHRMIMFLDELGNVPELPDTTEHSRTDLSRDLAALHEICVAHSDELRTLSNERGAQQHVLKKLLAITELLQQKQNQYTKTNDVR

[1] = biological target: T2, complex formation between Ras-GTP and GST-Raf(1-257) (Homo sapiens, UniProt P01112+P04049); experiment: Inhibition of Ras/Raf co-precipitation by synthetic peptides (contact epitope scanning); format: binding
T2 construct: 6xHis (6XH) (C); made in house; host or cells: E. coli

Ras-GTP = biological target: T3, Ras-GTP (Homo sapiens, UniProt P01112); experiment: Comparative co-precipitation of Ras-GTP-γ-32P by GST-Raf proteins; format: binding; conditions: 10 pmol GST-Raf protein, single concentration
T3 construct: made in house; host or cells: E. coli

GTPγS-loaded V12GrasH = experiment: In vitro direct binding of Ras to immobilized GST-Raf (immunoblot); conditions: immobilized on glutathione agarose, 6 hours 4° C., pan-Ras immunoblot
Description: In vitro direct binding experiments were carried out as follows. […] After 6 hours of tumbling at 4° C., the glutathione agarose beads were washed and analyzed for the binding of Ras peptide by sodium dodecyl sulfate-polyacrylamide gel electrophoresis (SDS-PAGE), followed by immunoblotting using a pan-Ras monoclonal antibody-2 (oncogene Science).
The DNA sequences encoding Raf1 amino acid residues 1-257 were generated by the polymerase chain reaction (PCR), using as template the plasmids RSV-C4 and RSV-PM17 (Bruder, J. T., Heidecker, G. & Rapp, U.R. Genes Dev. 6, 545-556 (1992)), which encode the wild-type and C168 →S mutant sequences, respectively. The c-DNA were inserted into pGEX-KG (Guan, K. L. and Dixon J. E., Anal Biochem. 192, 262-267 (1991)) at the EcoR1 and Sall sites, and sequenced to confirm the mutation and proper in-frame insertion. […] About 50% of the recombinant peptides were recovered as full-length fusion proteins. […] The beads were washed 4×and resuspended in buffer A as a 50% suspension. […] Following transfer to polyvinylidene difluoride (PVDF) membrane, the membrane was immunoblotted using pan-Ras monoclonal antibody-2 (Oncogene Science) and detected using the enhanced chemiluminescence technique (Amersham).

[2] = biological target: T4, Ras-GAP stimulation of c-rasH GTPase (Homo sapiens, UniProt P01112); experiment: Inhibition of Ras-GAP stimulation of c-rasH GTPase; format: biochemical; conditions: added at a concentration nearly equal to Ras-GAP
T4 construct: made in house; host or cells: Sf9 (baculovirus)
Description: The GTPase activity was estimated from the γ^32 P-GTP remaining bound to c-rasH after filtration.
In these experiments, baculoviral recombinant c-rasH was expressed and purified from the membrane pellet of Sf9 cells as described for the baculoviral membrane V12GrasH above. The c-rasH was charged with γ^32 P-GTP by combining 0.1 ml of c-rasH (approximately 10 μg/ml) in Ras storage buffer with 0.3 ml of 60 mM TrisCl, pH 7.5, 5 mM EDTA, 0.7 mg/ml BSA, 1.5 mM DTT, 4 mM ATP, 0.142 μM γ^32 P-GTP (4-6 ×10^5 cpm/pmole) on ice. After 1 hour, 50 μl of 135 mM MgCl2 was added. Loading of c-rasH with α^32 P-GTP was carried out under the same conditions; the α^32 P-GTP-c-rasHwas separated from unbound nucleotide by gel filtration (PD-10) in 25 mM TrisCl, pH 7.5, 5 mM MgCl2, 3 mM ATP, 1 mM DTT, and stored on ice. Baculoviral recombinant, full-length human GAP protein was extracted from Sf9 cells by homogenization in 25 mM TrisCl pH 7.5, 1 mM EGTA, 5 mM MgCl2, 1 mM DTT (GAP buffer) and protease inhibitors. […] GAP was detected using a radiolabeled Ras peptide in a filter binding assay. […] The mixture was filtered through a BA85 nitrocellulose membrane, washed 3×with 4 ml of stop solution, and the filters analyzed for retained ^32 P-labeled nucleotide.

Row | Substance | Competition of Ras/GAP interaction (in words), previous study (GAP) | Complex formation with Ras-GTP-γ-32P by co-precipitation (in words) (Ras-GTP) | further results
1 | 31-43: Ras peptide of a previous study (Schaber et al.) (EYDPTIEDSYRKQ; UniProt P01112 31-43, looked up, fragment) | did not compete at all |  | 
2 | 96-112 peptide: acetylated, C-terminal amide peptide of c-Raf-1 residues 96-112 (Ac-CAVFRLLHEHKGKKARL-NH2) |  |  | Inhibition of Ras-Raf association by peptide (in words) [1]: little inhibition
3 | GST-Raf(1-131): GST fusion of c-Raf-1 residues 1-131, unstable |  | complexed as well with Ras-GTP | 
4 | GST-Raf(1-257, C168 →S): mutant fragment in which serine replaces cysteine at position 168 |  |  | Binding of GTPγS-V12GrasH (in words) (GTPγS-loaded V12GrasH): significantly lower amounts of Ras are retained; Inhibition of Ras-GAP stimulation of Ras GTPase (in words) [2]: significantly less inhibition
5 | GST-Raf(51-149): GST fusion of c-Raf-1 residues 51-149 (SEQ ID NO:7) |  | complexed as well with Ras-GTP | 
6 | Ras 23-37: Ras peptide of a previous study (Schaber et al.) (LIQNHFVDEYDPTIE; UniProt P01112 23-37, looked up, fragment) | did not compete at all |  | 
